Series [1] concerns the target T7 RNA polymerase mutant GP1(lys222) (Bacteriophage T7, UniProt P00573 SEQ:1-883, E222K). The series can be described thus: EMSA; +/-5e3; 20-fold below wild-type; more easily disrupted by lambda DNA; 25 C. To be noted: label: 32P. As for the experimental part:
(§1) FIG. 8: Binding of a T7 Promoter by Wild-type T7 RNA Polymerase and GP1(lys222). […] Lane 1-no RNA polymerase, 5 µM promoter; Lane 2-26.5 nM GP1(lys222), 5 µM promoter; Lane 3-132.7 nM GP1(lys222), 5 µM promoter; Lane 4-26.5 nM GP1(lys222), 5 µM promoter, 3 µg lambda DNA; Lane 5-132.7 nM GP1(lys222), 5 µM promoter, 3 µg lambda DNA; Lane 6-12.9 nM T7 RNA polymerase, 5 µM promoter, Lane 7-64.7 nM T7 RNA polymerase, 5 µM promoter; Lane 8-12.9 nM T7 RNA polymerase, 5 µM promoter, 3 µg lambda DNA; Lane 9-64.7 nM T7 RNA polymerase, 5 µM promoter, 3 µg lambda DNA. Complex=Position of the enzyme/promoter complexes. Promoter=Position of the unbound promoter oligo.
(§2) 12. Estimation of Promoter Binding. The ability of T7 RNA polymerase and GP1(lys222) to bind a T7 promoter was determined by a gel-retardation method [Muller, D. K., et al., *Biochemistry*, 27: 5763-5771 (1988)]. […] The promoter/polymerase complexes were then cut out of the gel, and the amount of promoter contained in the complexes was measured by liquid scintillation.
On the technique in general: A gel shift assay detects complexes by their altered migration in electrophoresis.

For series [2], the target named is T7 RNA polymerase (wild-type) (Bacteriophage T7, UniProt P00573 SEQ:1-883). The series can be described thus: EMSA; +/-2.2e5; 10 mM K phosphate pH 7.8, 1 mM EDTA, 20 mM NaCl, 25 C. The note with it: label: 32P. As for the experimental part:
as §1, §2

Consider one molecule from patent publication US5385834, “Mutant T7 RNA polymerase GP1(lys222) exhibiting altered promoter recognition” (Georgia Tech Research Corporation).

B1: 24 bp T7 promoter oligonucleotide (dsDNA)
DNA 1: ATTAATACGACTCACTATAGGACT
DNA 2: AGTCCTATAGTGAGTCGTATTAAT
For the molecule B1, the figures for the Ka in series [1] and in series [2] were 14000 M⁻¹ and 280000 M⁻¹, respectively.
